Holding throughout (assay): cell-based or functional assay
For assay [1], the target named is T1, recombinant human IP-10 (hIP-10) (human, UniProt P02778 22-98).
T1 sequence (looked up): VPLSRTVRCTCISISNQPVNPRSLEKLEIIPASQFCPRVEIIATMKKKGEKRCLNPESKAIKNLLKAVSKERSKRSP

Assay [2] addresses T1, recombinant human IP-10 (hIP-10). The source holds these as a separate data set.
In assay [3] the target is T2, native human IP-10 (hIP-10) (human, UniProt P02778 22-98).
T2 sequence (looked up): T1 sequence (looked up)

The values that follow come from US20100330094A1 (NOVIMMUNE S A, published 2010).

Where a chain is given by its changes, count along the chain named. Where only a bound is given, the exact number is not on record here.

B1: CC21R3P1_E7, scFv format (scFv)
chain: QLVESGGGVVQPGRSLRLSCAASGFTFSTYGMHWVRQAPGKGLEWVAVISYDGGTKYYADSVKGRFTISRDNSMKTLYLQMNSLRTEDTAVYYCAKDLGDLPPGLDYWGQGTMVTVSSQSVLTQPPSASGTPGQRVTISCSGSSSNIGSNTVNWYQQLPGAAPKLLIYTNNQRPSGVPDRFSGSKSGTSASLAISGLQSEDEADYYCAAWDDSLNGNVVFGGGTKVTVL
For the molecule B1, in assay [1], the “Calcium flux IC50 (nM); 10 nM hIP-10; hCXCR3 L1.2 cells” value (from here on “Calcium flux IC50 … hCXCR3 L1.2 cells”) is 250 nM and the “Chemotaxis IC50 (nM); 2 nM hIP-10; hCXCR3 L1.2 cells” value stood at 71 nM.

B2: CB2R2P4_C3, scFv format (scFv)
chain: QVTLRESGPALVKPTQTLTLTCTFSGFSLTTSGMSVIWIRQPPGKALEWLARIDSDDEKHYNTSLKTRLAISKDTSKNQVVLTMTNMDPVDTGTYYCARLRAGSGPYVFDSWGQGTTVTVSSQSVLTQPPSASGTPGQRVTISCSGSSSNIGSNTVNWYQRLPGAAPQLLIYNNDQRPSGIPDRFSGSKSGTSGSLVISGLQSEDEADYYCASWDDSLNGRVFGGGTKLTVL
On to B2, for which, in assay [1], the “Calcium flux IC50 … hCXCR3 L1.2 cells” value was determined as 14 nM and the “Chemotaxis IC50 (nM); 1 nM hIP-10; hCXCR3 L1.2 cells” value is 15 nM.

B3: CB21R3P3_E5, IgG1 format (antibody, V domains shown)
VH: QVQLVESGGGVVQPGRSLRLSCAASGFTFSSYGMHWVRQAPGKGLEWVAVISYDGSIKYYADSVKGRFTISRDNSKNTLYLQMNSLRAEDAAVYYCARAPDGHQLDYWGRGTLVTVSS
VL: NFMLTQPHSVSESPGKTVTISCTGSSGSIASNYVQWYQQRPGSAPTTVIYEDDQRPSDVPDRFSGSIDSSSNSASLTISGLRTEDEADYYCQSYVSSKWVFGGGTKLTVL
Turning to B3, in assay [2], the “Chemotaxis IC50 (nM); 1 nM rhIP-10” value turned out to be 122 nM.

B4: CB21R3P1_F1, scFv format (scFv)
chain: QVQLVESGGGVVRPGRSLRLSCAASGFTFSSYGMHWVRQAPGKGLEWVAVISYDGSIKYYADSVKGRFTISRDNSKNTLYLQMNSLRAEDTAIYYCARVMGTDPHSYYYMDVWGKGTLVTVSSSSELTQDPAVSVALGQTVRITCQGDSLRSYYASWYQRKPGQAPVLVIYGKNNRPSGIPDRFSGSSSGNTASLTITGAQAEDEADYYCNSRDSSGNHVLFGGGTKLTVL
On to B4, for which, in assay [1], the “Calcium flux IC50 … hCXCR3 L1.2 cells” value came to 36 nM and the “Chemotaxis IC50 (nM); 2 nM hIP-10; hCXCR3 L1.2 cells” value was determined as 40 nM.

B5: CC21R3P3_C1, scFv format (scFv)
chain: QVQLVESGGGVVQPGRSLRLSCAASGFTFSSYGMHWVRQAPGKGLEWVAVISYDGSIKYYADSVKGRFTISRDNSRNTLYLQMNSLRPEDTAVYYCAKDWGFSGSLTFDYWGQGTMVTVSSSYVLTQPPSVSVAPGKTARITCGGNNIGSKSVHWYQQKPGQAPVLVIYYDSDRPSGIPERFSGSNSGNTATLTISRVEAGDEADYYCQVWDSSSDHVVFGGGTKVTVL
Take B5: in assay [1], the “Calcium flux IC50 … hCXCR3 L1.2 cells” value was 71 nM and the “Chemotaxis IC50 (nM); 1 nM hIP-10; hCXCR3 L1.2 cells” value was determined as 72 nM.

B6: CF1H1R3P3_G11, IgG1 format (antibody, V domains shown)
VH: QVQLVESGGGVVQPGRSLRLSCAASGFTFSNSGIHWVRQAPGKGLEWVAVISYDGSNKFYADSVKGRFTISRDNSKNTLYLQMNSLRAEDTAVYYCAKLRDNGEYLDYWGQGTLVTVSS
VL: NFMLTQPHSVSESPGKTVTISCTGSGGSIDRNYVQWYQQRPGSSPTTVIYEDNQRPSGVPDRFSGSIDSSSNSASLTISGLKTEDEADYYCQSYDPLPVWVFGGGTKLTVL
B6: the “Chemotaxis IC50 (nM); native hIP-10 at 0.6 nM” value (“Chemotaxis IC50 … at 0.6 nM” below) in assay [3] came to 1.9 nM. Also, in assay [2], the “Calcium flux IC50 (nM); 10 nM rhIP-10” value is 7.9 nM and the “Chemotaxis IC50 (nM); 0.2 nM rhIP-10” value amounted to 0.2 nM.

B7: CF1A11R3P3_F3, scFv format (scFv, V domains shown, not shown: small tags and cut ends)
VH: B6 VH
VL: B6 VL with S44A, T46I, K82R, E84D, P96S, L97I, P98N, V99L, L108V
In the case of B7, in assay [1], the “Calcium flux IC50 … hCXCR3 L1.2 cells” value was determined as 14 nM and the “Chemotaxis IC50 (nM); 1 nM hIP-10; hCXCR3 L1.2 cells” value turned out to be 1.8 nM.

B8: CF1A11R3P3_F3, IgG1 format (antibody, V domains shown)
VH: B6 VH
VL: B6 VL with S44A, T46I, K82R, E84D, P96S, L97I, P98N, V99L, L108V
B8: the “Chemotaxis IC50 … at 0.6 nM” value in assay [3] was determined as 1.7 nM. Moreover, in assay [2], the “Calcium flux IC50 (nM); 10 nM rhIP-10” value worked out at 5.9 nM and the “Chemotaxis IC50 (nM); 0.2 nM rhIP-10” value stood at 0.69 nM.

B9: CF1N1R3P4_C7, IgG1 format (antibody, V domains shown)
VH: B6 VH with G103A, L106T
VL: B6 VL
For the molecule B9, the “Chemotaxis IC50 … at 0.6 nM” value in assay [3] was 0.64 nM. Moreover, in assay [2], the “Calcium flux IC50 (nM); 10 nM rhIP-10” value came out at 4.1 nM and the “Chemotaxis IC50 (nM); 0.2 nM rhIP-10” value amounted to 0.19 nM.

B10: CF1H1R3P4_B5, IgG1 format (antibody, V domains shown)
VH: B6 VH
VL: B6 VL with D95V, P96E, L97T, V99E
Take B10: the “Chemotaxis IC50 … at 0.6 nM” value in assay [3] is 1.2 nM. In assay [2], the “Calcium flux IC50 (nM); 10 nM rhIP-10” value was 4.7 nM and the “Chemotaxis IC50 (nM); 0.2 nM rhIP-10” value was found to be 0.42 nM.

B11: CC21R3P4_F4, scFv format (scFv)
chain: QVQLVESGGGVAHSGKSLRLSCAASGFTFSNYGMHWVRQAPGKGLEWLAVISYDGSNRYYADSVKGRFTISRDNSNNTLNLQMSSLRAEDTALYYCAKDAGGPLDYWGRGTLVTVSSSYVLTQPPSVSVAPGQMARITCGGNNIGDKSVQWYQQRPGQAPLLVVYDDSDRPSGIPERFSGSYSRNTATLTISRVEAGDEADYYCQVWDSSSDHPEVVFGGGTKLTVL
As for B11, in assay [1], the “Calcium flux IC50 … hCXCR3 L1.2 cells” value came to 107 nM and the “Chemotaxis IC50 (nM); 1 nM hIP-10; hCXCR3 L1.2 cells” value amounted to 36 nM.

B12: CC21R3P1_C1a, scFv format (scFv)
chain: QVQLVESGGGVVQPGRSLRLSCAASGFTFSSYGMHWVRQAPGKGLEWVAVISYDGSNKYYADSVKGRFTISRDNSKNTLYLQMNSLRAEDTAVYYCAKDEFDAFDIWGRGTMVTVSSSYVLTQPPSVSVAPGTTARITCGGNNIGSRSVHWYQQKPGQAPLLVIYYDSDRPSGIPLRFSGSNSGNTATLTISRVEAGDEADYYCQVWDTSSGHYVFGTGTKVTVL
B12: in assay [1], the “Calcium flux IC50 … hCXCR3 L1.2 cells” value amounted to 37 nM and the “Chemotaxis IC50 (nM); 1 nM hIP-10; hCXCR3 L1.2 cells” value came out at 108 nM.

B13: CC21R3P1_E7, IgG1 format (antibody, V domains shown)
VH: QLVESGGGVVQPGRSLRLSCAASGFTFSTYGMHWVRQAPGKGLEWVAVISYDGGTKYYADSVKGRFTISRDNSMKTLYLQMNSLRTEDTAVYYCAKDLGDLPPGLDYWGQGTMVTVSS
VL: not shown
B13: in assay [2], the “Calcium flux IC50 (nM); 10 nM rhIP-10” value is > 200 nM and the “Chemotaxis IC50 (nM); 1 nM rhIP-10” value is 56 nM.

B14: CF1H1R3P4_B5, scFv format (scFv)
chain: QVQLVESGGGVVQPGRSLRLSCAASGFTFSNSGIHWVRQAPGKGLEWVAVISYDGSNKFYADSVKGRFTISRDNSKNTLYLQMNSLRAEDTAVYYCAKLRDNGEYLDYWGQGTLVTVSSNFMLTQPHSVSESPGKTVTISCTGSGGSIDRNYVQWYQQRPGSSPTTVIYEDNQRPSGVPDRFSGSIDSSSNSASLTISGLKTEDEADYYCQSYVETPEWVFGGGTKLTVL
B14: in assay [1], the “Calcium flux IC50 … hCXCR3 L1.2 cells” value was determined as 2.4 nM and the “Chemotaxis IC50 (nM); 0.2 nM hIP-10; hCXCR3 L1.2 cells” value worked out at 0.51 nM.

B15: CE7C1R3H8_J9, scFv format (scFv)
chain: QVQLVESGGGVVQPGRSLRLSCAASGFTFSTYGMHWVRQAPGKGLEWVAVISYDGGTKYYADSVKGRFTISRDNSMKTLYLQMNSLRTEDTAVYYCAKDLGDLPPGLDYWGQGTMVTVSSQSVLTQPPSASGTPGQRVTISCSGSSSNIGSNTVNWYQQLPGAAPKLLIYTNNQRPSGVPDRFSGSKSGTSASLAISGLQSEDEADYYCAAWDDSSEPRVVFGGGTKVTVL
Turning to B15, the “Chemotaxis IC50 (nM); 1 nM hIP-10; hCXCR3 L1.2 cells” value in assay [1] was 0.9 nM.

B16: CC21R3P1_H6, IgG1 format (antibody, V domains shown)
VH: QVQLVESGGGVAQSGKSLRLSCAASGFTFSNYGMHWVRQAPGKGLEWLAVISYDGSNRYYADSVKGRFTISRDNSNNTLNLQMSSLRAEDTALYYCAKDAGGPLDYWGKGTLVTVSS
VL: VLTQLTQPPSVSLAPGQTATITCGGDNIGRKSVHWYQQKPGQAPVLVVYDDTDRPSGIPERFSGSNSGNTATLTISRVEAGDEADYYCQVWDSSIDHSWVFGGGTKLTVL
In the case of B16, in assay [2], the “Calcium flux IC50 (nM); 10 nM rhIP-10” value was > 200 nM and the “Chemotaxis IC50 (nM); 1 nM rhIP-10” value worked out at 75 nM.

B17: CC21R3P4_F4, IgG1 format (antibody, V domains shown)
VH: B16 VH with Q13H, K109R
VL: SYVLTQPPSVSVAPGQMARITCGGNNIGDKSVQWYQQRPGQAPLLVVYDDSDRPSGIPERFSGSYSRNTATLTISRVEAGDEADYYCQVWDSSSDHPEVVFGGGTKLTVL
Regarding B17, in assay [2], the “Calcium flux IC50 (nM); 10 nM rhIP-10” value is > 200 nM and the “Chemotaxis IC50 (nM); 1 nM rhIP-10” value worked out at 157 nM.

B18: CB21R3P6_G7, scFv format (scFv)
chain: QVQLVQSGAEVKKPGSSVTVSCKASGGTFSSFSITWLRQAPGQGLEWMGEITPMFGIANYAQKFQGRVTISADESTSTAYMELSGLTSEDTAMYYCARDGRFDVSDLLTDKPKVTINYNGMDVWGQGTLVTVSSQSVLTQPPSASGTPGQRVTISCSGSSSNIGSNTVNWYQRLPGAAPQLLIYNNDQRPSGIPDRFSGSKSGTSGSLVISGLQSEDEADYYCASWDDSLNGRVFGGGTKLTVL
As to B18, in assay [1], the “Calcium flux IC50 … hCXCR3 L1.2 cells” value was 46 nM and the “Chemotaxis IC50 (nM); 1 nM hIP-10; hCXCR3 L1.2 cells” value is 10 nM.

B19: CB2R2P4_C3, IgG1 format (antibody, V domains shown)
VH: QVTLRESGPALVKPTQTLTLTCTFSGFSLTTSGMSVIWIRQPPGKALEWLARIDSDDEKHYNTSLKTRLAISKDTSKNQVVLTMTNMDPVDTGTYYCARLRAGSGPYVFDSWGQGTTVTVSS
VL: QSVLTQPPSASGTPGQRVTISCSGSSSNIGSNTVNWYQRLPGAAPQLLIYNNDQRPSGIPDRFSGSKSGTSGSLVISGLQSEDEADYYCASWDDSLNGRVFGGGTKLTVL
Take B19: in assay [2], the “Calcium flux IC50 (nM); 10 nM rhIP-10” value was > 200 nM and the “Chemotaxis IC50 (nM); 1 nM rhIP-10” value came out at 33 nM.
